Measured values as given in the nanobody polyreactivity screen of Harvey et al. (2022).

Experiment: yeast display, Sf9 membrane polyspecificity reagent, FACS + sequencing; frameworks hold sequencing errors
Method in brief: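 Genes from sorted yeast were amplified by colony PCR, read by MiSeq 2 × 250 sequencing and filtered on CDR length. These cells carried a synthetic nanobody library in Saccharomyces cerevisiae BJ5465 and were sorted by FACS into low and high (top ~1%) gates on anti-HA and streptavidin fluorescence. Polyreactivity is labelled according to the gate of origin.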

Sequence	polyreactivity (PSR sort gate)
QVQLVESGGGLVQAGGSLRLSCAASGSIFPYNAMGWYRQAPGKERELVAAIRFGGGSTYYSDSVKGRFTISRDNAKNTVYLQMNSLKPEDTAVYYCAAQVLQSAYLPFRFGYYYWGLGTQVTVSS	low polyreactivity
QVQLVESGGGLVQAGGSLRLSCAASGSTFGRYAMGWSRQAPGKEWELVAAISGRGGSTYYADSVKGRFTISRDNAKNTVYLQMNSLKPEDTAVYYCAVRYYSARYWYGYDYWGQGTQVTVSS	high polyreactivity
QVQHVDSGGGLVQAGGSLRLSFAASGFRFGINAMGWYRPAPGKERELVAAISKRTGSTYYADSVKGRFTSSRDNAKNTVYLQMNSLKPEDTAVYYCNKRVFPGYRLGGFWGQGTQVTVSS	high polyreactivity
QVQLVESGGGLVQAGGSLRISCAASGSNQDSYTMGWYRQAPGKERELVATISTSGGSTYYADSVKGRFTISRDNAKHTVYLQLNSLKPEDTAVYYCNADDPFGPHRYNSWGQGTQVTVSS	low polyreactivity
QVQLVESGGGLVQAGGSLRLSCAASGRTFSVNDMGWYRQAPGKERELVAAISFSGGSTYYADSVKGRFTISRDNAKNTVYLQMNSLKPEDTAVYYCAAEAYPVRRLNLPGYDYWGQGTQVTVSS	high polyreactivity
QVQLVESGGGLVQAGGSLRLSCAASGRTFDVYAMGWYRQAPGKEREFVASITRSGASTYADSVKGRFTISRDNAKNTVYLQMNSLKPEDTAVYYCNAELDLDTGWDGFVAYDYWGQGTQVSVSS	low polyreactivity
QVQLVESGGGLVQAGGSLRLSCAASGRTFGRYAMGWYRQAPGKERELVADITGGGSTNYADSVKGRFTISRDNAKNTVYFQMNSLKPEDTAVYYCNAGILSRWVRKYYYWGQGTQVTVSS	low polyreactivity
QVQLVESGGGLVQAGGSLRLSCAASGRTFAYNTMGWYRQAPGKERELVARINSGTSTYYADSVKGRFTISRDNAKNTVYLQMNRLKPEDTAVYYCNAYSWYGYDYWGQGTQVTVSS	high polyreactivity
QVQLVESGGGLVQAGGSLRLSCAASGRIFVSNGMGWYRQAPGKESELVAVIRSSTGSTYYADSVKGRFTISRDNAKNTVYLQMNSLKPEDTAVYYCAAPNPFFEPSEYDYWAQGTQVTVSS	low polyreactivity
QVQLVESGGGLVQAGGSLRLSCAASGRTFYYNTMGRNIPAPGKERELVATISRIGGSTYYADSVKGRFTISRDNAKNTVYLQMNSLKPEDTAVYYCAKGRSLNGRPPVVYWQLFYYWGQGTEVTVSS	high polyreactivity
QVQLVESGGGLVQAGGSLRLSCAASGRIFSWYTMGWYRQAPGKERELVAAISWSGTSTYYADSVKGRFTISRDNAKNTVYLQMNSLKPEDTAVYYCARVLSPYYSTRYDHWGQGTQVTVSS	high polyreactivity
QVQLVESGGGLVQAGGSLRLSCAASGRTFDINTMGWYRQAPGKERELVARISGRGGSTYYADSVKGRFTISRDNAKNTVYLLMNSLKPEYTAVYYCNALGRSVLPQPIGDYWGQGTQVTVSS	high polyreactivity
QVQLVESGGGLVQARGSLRLSCAASGFTSLWNGMGLSSQAPGKERELVAAITSDSSTYYADSVKGRFTISRDNAKNTVYLQMNSLKPEDTAVYYCAKYFVYVGYGRYDYWGQGTEVTVSS	low polyreactivity
QVQLVESGGGLVQAGGSLRLSCAASGGIFGYYAMGWYRQAPGKERELVAAISSSGGSTYYADSVKGRFTISRDNAKNTVYLQMNSLKPEDTAVYYCAAYRKVGGFSRGDYWGQGTQVTVSS	high polyreactivity
QVQLVESGGGLVQAGGSLRLSCAASGFTFSSYAMGWYRQAPGKERELVAAITQSGGRTYYADSVKGRFTISRDNAKNTVYLQMNSLKPEDTAVYSCAADVTLWYDYWGQGTQVTVSS	low polyreactivity
QVQLVESGGGLVQAGGSLRLSCAASGRIFWYYAMGWYRQAPGKERELVATISYGGGNTYYADSVKGRFTISRDNAKNTVYLQMNSLKPEDTAVYDCARVPYAYLPYKPFQQYSYDYWGQGTQVTVSS	high polyreactivity
QVQLVESGGGLVQAGGSLRLSCAASGSTFQTYAMGSYRPAPGKERELVAAISKTGASTYYADSVKGRFTISRDNAKNTVNLQMNSLKPEDTAVYYCAAGRYTSYYPRYYYWGQGTQVTVSS	high polyreactivity
QVQLVESGGGIVQAGGSLRLSCAAAGSNFTVYVMGWYRQAPGKERELVARISSDGSTNYADSVKGRFTISRDNAKNSVFLQMNSLKPEDTAVYYCNADFPFSGRRPWYNAYDYWGQGTQVTVSS	low polyreactivity
QVQLVESGGGLVQAGGSLRLSCAASGYIFGGYAMGWYRQAPGKERELVAAISRSGGSTYYADSVKGRFTISRDNAKNTVYLQMNSLKPEDTAVYYCAVRGYTLRYGYWGQGTQVTVSS	high polyreactivity
QVQLVESGGGLVQAGGSLRLSCAASGITVDYYVMGWYRQAPGKERELVASIDSGGRTKYADSVKGRFTISRDNAKNTVYLQMNILKPEDTAVYYCAARSYVFRSRWIRWPKYWGQGTQVTVSS	high polyreactivity
QVQLVESGGGLVQAGGSLRLSCAASGSTFRQNTMGWYRQAPGKEREFVAAINYSGGSTNYADSVKGRFTISRDNAKNTVYLQMNSLKPEDTAVYYCAVRQYYYKRMGYWGQGTQVTVSS	high polyreactivity
QVQLVESGGGLVQAGGSLRLSCAASGSTFYYGMGWYRQAPGKERELVAAISSRGGTTYYADSVKGRFTISRDNAKNTVYLQMNSLKPEDTAVDYCAAPVPYYVPRRNEGDYWGQGTQVTVSS	low polyreactivity

Sequence	polyreactivity (PSR sort gate)
QVQLVESGGGLVQAGGSLRLSCAASGSTFAGNAMGWYRQAPGKERELVAAIDSSTGSTYYSDSVKGRFTISRDNAKNTVYLQMNSLKPEDTSVYYCNKTSVLVKLDYWGQGTQVTVSS	low polyreactivity
QVQLVESGGGLVHAGGSLRLSCAASGRTFPTNAMGWYRQSPGKDRELVAAISWSGGGTYYADSVKGRFTISRDNAKNTIYLQMNSLKPEDTAVYYCAADDTPDTIYGSDYWGQGTQVTVSS	low polyreactivity
QVQLQESRGCLVQAGGSLRLTCAASGTISDSGLMGWYRQAPGKERELVAGISSGGITNYADSVKGRFTLSRDNAKNSVYLQMNSLKPEDTAVYWGQGTQVTVSS	low polyreactivity
QVQLVESGGGLVQAGGSLRLICAASGRIFGYYAMGWYRQAPGKERELVAAISRAGSTYYADSVKGRFTISRDNAKNTVSLQMNSLKPEDTAVYYCAAVRSVQRHYTEMYYWGQVTQVTVSS	high polyreactivity
QVQLVESGGGLVQAGGSLRLSCAASGRTFWSNAMGSYRQAPGKERELVAAINTSGGNTYYADSVKGRFTISRDNAKNTVYLQMNSLKPEDTAVYFCNTDGLVRNGPFYSWGQGTQVTVSS	low polyreactivity
QVQLVDSGGGLVQGGGRLRLSCAASGFTLQSNAMGWYRQAPGKERELVAAISFRGGSTYYADSVKGRFTISRDNAKNTVYLQKNSLKPEDTAVYYCAADFYVHSAYYYGYWGQGTQVTVSS	low polyreactivity
QVQLVESGGGLVQAGGSLRLSCAASGFIFSRYAMGWYRQAPGKERELVAAISIGGSTYYADSVKGRFTISRDNAKNTVYLQMNSLKPEDTAVYYCAVDYRHSSSWNAGPWEMYYWGQGTQVTVSS	low polyreactivity
QVQLVESGGGLVQAGGSLRLSCAASGRTLVPYAMGWYRQAPGKERELVAAINSSGGSTYYADSVKGRFTISRDNAKNTVYLQMNSLKPEDTAVYYCNVQSVHFRLWKDNYWGQGTQVTVSS	high polyreactivity
QVQLVESGGGLVQAGGSLRLSCASSGSTFLAYAMGWDRQAPGKERELVAAISSRGSRTYYADSLKGRCTISRDTAKNTVYLQMNSLKPEDTAVYYCAARYPSGYYYWGQGTQVTVSS	high polyreactivity
QVQLVESGGGLVQAGGSLRLSCAASGRIFTPYAMGWYRQAPGKERELVAVIRDGSTYYADSVKGRFTISRDNAKNTVYIQMNSLKPEDTAVYYCRYDIWVWWSGAYDYWGQGTQVTVSS	low polyreactivity
QVQLVESGGGLVQAGGRLRFSCAASGSIFEYYTMGWYRQAPGKERELVAAISDGGSTYYADSVKGRFTISRDNAKNTVYLQMNSLKPDDTAFYYCAAEYQQDFWVAVDYWGQGTQLTVSS	low polyreactivity
QVQLVESGGGLVQAGGSLRLSCAASGSISNRYAMGWYRQAPGKERELVAAISTGGGTTYYADSVKGRFTISRDNAKNTVYLQMNSLKPEDTAVYYCAADDWRYYRELDYWGQGTQVTVSS	low polyreactivity
QVQLVESGGGLVQAGGSLRLSCAASGITFEYYAMGWYRQAPGKERELVAAIDTGGSTNYADSVKGRFTISRDNAKNTVYLQMNSLKPEDTAVYYCTADGPSTPWVDYGYWGQGTQVTVSS	low polyreactivity
QVQLVESGGGLVQAGGRLRLTCAPSGTIIYQYAMGFDRHAPGKERELVAASSTTGGPTYYADSVKGRFTISRDNAKKTVYLQMNSLKPEDTAVYYCAAEKYYGYDYWGQGTQVTVSS	high polyreactivity
QVQLVESGGGLVQAGGSLRLSCAASGSIFSINARGWYRQAPGKERELVAAITYSTGSTYYADSVKGRFTISRDNAKNTVYLQMNSLKPEDTAVYYCAAVYKRTYLHSQTYGYYYWGQGTQVTVSS	high polyreactivity
QVQLVESGGGLVQAGGSLRLSCAASGSIFLVYAMGWYRQAPGKERELVAVITKSGGSTYYADSVKGRFTISRDNAKNTVYLQMNSLKPEDTAVYYCAARRRGARHDYWGQGTQVTVSS	high polyreactivity
QVQLVESGGGLVQAGGSLRLSCAASGFIFAGYAMGWYRQAPGKERELVAAISWDGGSTYYADSVKGRFTISRDNAKNTVYLQMNSLKPEDTAVYYCARARYGKYGYWGQATQVTVSS	low polyreactivity
QVQLGESGGGLVQAGGSLRLSCAASGSIFAYYAMGWYRQAPGKERELVAGISGSGGSTYYADSVKGRFTISRDNAKNTVYLQMNSLKPEDTAVYYCAVDGRRNGDVRYNYWGQGTQVTVSS	high polyreactivity
QVQLVESGGGLVQAGGSLRLSFAASGSTFSRNTMGWYRQAPGKERELVAAISKSGGRTYYADSVKGRFTISRDNAKNTVYLQINSLKPEDSAVYYCNAAVYAYASDYWGQGTQVTVSS	high polyreactivity
QVQLVESGGGLVQAGGSLRLSCAASGIIFSYYTMGWYRPAPGKERELVAAISARGGRTYYADSVKGRFTISRDNAKNTVYLQMNSLKPEDTAVYYCAASWSTEYYWGQGTQVTVSS	high polyreactivity
QVQLVESGGGLVQAGGSLRLSCAASGRIFYYYGMGWYRQAPGKERELVAAISNGGRTYYADSVKGRFTISRDNAKNTVYLQMNSLKPEDTAVDYCAALTRGRGGYDYWGQGTQVTVSS	high polyreactivity
